This is an account of results in US20240228604A1 (ALCHEMAB THERAPEUTICS, published 2024).

Usually EC50 stands for the concentration at which the effect is half-maximal.

Experiment [1] deals with T1, Human recombinant UNC5A (BLI antigen) (Human, UniProt Q6ZN44 26-306).
T1 construct: Captured by His tag; also called UNC5A ectodomain
Briefly: BLI, antigen captured by His tag, antibody as analyte. The source says:
(§1) Antigen was loaded as ligand and dipped into antibody as analyte during association, and assay buffer during dissociation.
(§2) Purified recombinant antigens were purchased from a commercial supplier or prepared and purified in-house and details are shown in Table 2.
On the technique in general: BLI is a label-free optical method that tracks binding on a fibre tip over time.

Experiment [2] addresses T2, Human Neogenin (R&D Systems catalogue number 8607-NE; BLI antigen) (Human, UniProt Q92859 34-1105).
T2 construct: extracellular domain; Bought protein; also called neogenin-1 ectodomain; NEO1
T2 sequence (looked up): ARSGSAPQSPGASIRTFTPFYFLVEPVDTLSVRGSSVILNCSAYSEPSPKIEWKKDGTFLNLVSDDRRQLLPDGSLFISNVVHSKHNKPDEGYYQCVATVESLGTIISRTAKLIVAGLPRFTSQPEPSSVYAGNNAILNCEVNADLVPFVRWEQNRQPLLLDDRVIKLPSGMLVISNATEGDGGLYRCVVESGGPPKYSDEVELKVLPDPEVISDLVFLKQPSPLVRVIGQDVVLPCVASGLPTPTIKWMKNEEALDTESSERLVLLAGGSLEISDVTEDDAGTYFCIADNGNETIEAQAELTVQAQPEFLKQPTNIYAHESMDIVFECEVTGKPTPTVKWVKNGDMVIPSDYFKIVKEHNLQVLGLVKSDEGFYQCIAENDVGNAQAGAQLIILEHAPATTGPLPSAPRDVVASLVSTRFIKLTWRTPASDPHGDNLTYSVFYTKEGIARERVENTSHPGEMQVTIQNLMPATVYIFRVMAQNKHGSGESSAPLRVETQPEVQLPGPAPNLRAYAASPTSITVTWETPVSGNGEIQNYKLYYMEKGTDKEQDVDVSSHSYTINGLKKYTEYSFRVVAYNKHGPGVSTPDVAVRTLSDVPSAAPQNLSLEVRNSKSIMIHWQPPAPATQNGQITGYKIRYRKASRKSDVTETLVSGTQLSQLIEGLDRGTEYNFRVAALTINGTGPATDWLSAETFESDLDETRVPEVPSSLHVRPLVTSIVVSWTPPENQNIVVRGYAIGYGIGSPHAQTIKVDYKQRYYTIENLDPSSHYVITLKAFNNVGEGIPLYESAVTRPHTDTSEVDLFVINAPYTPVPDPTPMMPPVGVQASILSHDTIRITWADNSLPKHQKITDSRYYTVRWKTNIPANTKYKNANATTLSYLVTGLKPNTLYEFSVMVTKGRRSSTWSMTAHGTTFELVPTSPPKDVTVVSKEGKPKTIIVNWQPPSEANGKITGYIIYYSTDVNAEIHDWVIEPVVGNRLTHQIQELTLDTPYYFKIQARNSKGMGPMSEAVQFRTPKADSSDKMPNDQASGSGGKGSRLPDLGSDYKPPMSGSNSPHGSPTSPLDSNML
The description is as above.
From the text: as §1, §2

Experiment [3] addresses T3, Human recombinant UNC5B (BLI antigen) (Human, UniProt Q8IZJ1 27-377).
T3 construct: also called UNC5B ectodomain
Described as above.
From the text: as §1, §2

Experiment [4] concerns the target T4, Human recombinant UNC5D (BLI antigen) (Human, UniProt Q6UXZ4 33-379).
T4 construct: also called UNC5D ectodomain
The description is as above.
From the text: as §1, §2

Experiment [5] addresses T5, Human recombinant DCC (BLI antigen) (Human, UniProt P43146 26-1097).
T5 construct: also called Netrin receptor DCC ectodomain
Described as above.
From the text: as §1, §2

Experiment [6] deals with T6, mouse UNC5C in frozen C57BL/6 mouse brain sections (mouse, UniProt O08747 41-931).
T6 construct: Native protein in fixed tissue sections; also called UNC5C in its natural central nervous system (CNS) context; mouse brain tissue
Briefly: immunofluorescence on frozen mouse brain sections, 10 µg/ml antibody.

Experiment [7] concerns the target T7, rmUNC5C, in-house production from HEK293F cells (N-terminal His and FLAG tag + amino acids 41-380 of murine … (mouse, UniProt O08747 41-380)).
T7 construct: extracellular domain; also called mouse UNC5C (Inhouse antigen); recombinant mouse UNC5C
The experiment can be described thus: direct ELISA. On the procedure: (§3) The plate was washed with PBS. Plates were blocked with 200 μl/well of blocking solution (1% BSA w/v in PBS) for 1 hour at room temperature. Following this, the blocking solution was removed and antibodies to be assessed were diluted in dilution series (1 μM to 0.05 nM) in blocking solution (1% BSA w/v in PBS) and applied to the plate. Plates were incubated at room temperature for 1 hour. The plate was washed with PBS/0.1% Tween. […] The plate was washed with PBS/0.1% Tween and TMB solution (Life Technology; #002023) added. Plates were incubated for 5 minutes at room temperature prior to the addition of stopping solution (0.5M sulphuric acid). Absorbance was read on Molecular Devices FilterMaxF5 plate reader at 450 nm. Analysis was performed using a non-linear fit curve fitting algorithm on GraphPad prism and EC50 calculated.
(§4) To measure the binding potency of antibodies to UNC5C protein, antibodies were assessed in a direct ELISA format for binding to human UNC5C. In addition, a selection of these antibodies was also screened for binding to mouse, cyno, and rat UNC5C in a direct ELISA format.

Experiment [8] has as its target T8, Recombinant rat UNC5C (N-terminal His and FLAG tag), in-house production from HEK293F cells (rat, UniProt Q761X5 41-380).
T8 construct: also called rat UNC5C (inhouse antigen); rat antigen
Briefly: direct ELISA. On the procedure:
as §3, §4
On the technique in general: ELISA stands for enzyme-linked immunosorbent assay.

The target in experiment [9] is T9, UNC5C recombinant human antigen, Fc-tagged (R&D Systems, #1005-UN) (human, UniProt O95185 41-380, limits assumed).
T9 construct: Bought protein; also called rhUNC5C; not shown: Fc tag of the bought protein
Briefly: direct ELISA. On the procedure: as §3, §4

The target of experiment [10] is T10, Recombinant cyno UNC5C (N-terminal His and FLAG tag), in-house production from HEK293F cells (cyno, UniProt O95185 41-380 (human entry), limits assumed).
T10 construct: also called cyno UNC5C (Inhouse antigen); cyno antigen
Briefly: direct ELISA. On the procedure:
as §3, §4

Experiment [11] concerns the target T9, UNC5C recombinant human antigen, …. Briefly: ELISA, antigen down.

Substitutions are numbered along the chain they refer to.

T8 sequence (Q761X5 other isoform, or with tags, fused parts or gaps limits assumed): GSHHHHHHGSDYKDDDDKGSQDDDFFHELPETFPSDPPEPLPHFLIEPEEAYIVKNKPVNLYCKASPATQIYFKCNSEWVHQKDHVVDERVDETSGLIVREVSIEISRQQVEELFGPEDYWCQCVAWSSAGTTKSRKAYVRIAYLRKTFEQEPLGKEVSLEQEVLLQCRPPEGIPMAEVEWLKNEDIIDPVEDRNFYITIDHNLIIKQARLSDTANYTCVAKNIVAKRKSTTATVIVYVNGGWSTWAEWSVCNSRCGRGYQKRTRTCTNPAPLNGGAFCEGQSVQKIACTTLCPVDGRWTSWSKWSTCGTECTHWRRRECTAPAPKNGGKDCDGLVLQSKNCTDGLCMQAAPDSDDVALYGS
T7 sequence (O08747 other isoform, or with tags, fused parts or gaps limits assumed): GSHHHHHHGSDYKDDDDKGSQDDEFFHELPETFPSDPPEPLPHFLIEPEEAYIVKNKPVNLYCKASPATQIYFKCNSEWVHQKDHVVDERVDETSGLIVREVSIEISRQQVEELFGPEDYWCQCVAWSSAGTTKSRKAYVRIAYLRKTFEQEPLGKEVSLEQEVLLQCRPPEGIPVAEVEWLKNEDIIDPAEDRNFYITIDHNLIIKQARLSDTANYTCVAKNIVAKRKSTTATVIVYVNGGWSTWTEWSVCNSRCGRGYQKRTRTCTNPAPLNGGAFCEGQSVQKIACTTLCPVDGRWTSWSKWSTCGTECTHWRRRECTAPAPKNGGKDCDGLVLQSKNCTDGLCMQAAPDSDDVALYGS
T9 sequence (O95185 41-380 limits assumed): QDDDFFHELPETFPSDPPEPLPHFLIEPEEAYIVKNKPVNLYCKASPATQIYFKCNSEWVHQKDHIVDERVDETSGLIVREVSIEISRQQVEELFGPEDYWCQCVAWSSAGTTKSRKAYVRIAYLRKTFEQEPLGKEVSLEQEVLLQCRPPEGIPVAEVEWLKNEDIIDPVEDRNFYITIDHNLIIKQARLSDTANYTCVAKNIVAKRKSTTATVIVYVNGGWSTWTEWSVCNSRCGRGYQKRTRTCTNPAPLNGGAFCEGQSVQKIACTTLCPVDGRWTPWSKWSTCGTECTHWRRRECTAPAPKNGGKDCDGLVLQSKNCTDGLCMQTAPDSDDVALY
T10 sequence (O95185 other isoform, or with tags, fused parts or gaps limits assumed): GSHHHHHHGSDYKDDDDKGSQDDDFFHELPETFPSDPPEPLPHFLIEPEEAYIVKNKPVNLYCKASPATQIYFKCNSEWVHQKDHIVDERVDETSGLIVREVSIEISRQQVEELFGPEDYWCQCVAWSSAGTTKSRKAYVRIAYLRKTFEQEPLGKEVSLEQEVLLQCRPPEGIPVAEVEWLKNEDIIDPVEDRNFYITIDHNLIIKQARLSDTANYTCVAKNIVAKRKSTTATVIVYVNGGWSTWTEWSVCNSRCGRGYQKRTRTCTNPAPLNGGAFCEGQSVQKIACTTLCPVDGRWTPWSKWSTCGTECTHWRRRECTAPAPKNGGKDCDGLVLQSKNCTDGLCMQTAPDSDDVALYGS
T5 sequence (P43146 other isoform, or with tags, fused parts or gaps): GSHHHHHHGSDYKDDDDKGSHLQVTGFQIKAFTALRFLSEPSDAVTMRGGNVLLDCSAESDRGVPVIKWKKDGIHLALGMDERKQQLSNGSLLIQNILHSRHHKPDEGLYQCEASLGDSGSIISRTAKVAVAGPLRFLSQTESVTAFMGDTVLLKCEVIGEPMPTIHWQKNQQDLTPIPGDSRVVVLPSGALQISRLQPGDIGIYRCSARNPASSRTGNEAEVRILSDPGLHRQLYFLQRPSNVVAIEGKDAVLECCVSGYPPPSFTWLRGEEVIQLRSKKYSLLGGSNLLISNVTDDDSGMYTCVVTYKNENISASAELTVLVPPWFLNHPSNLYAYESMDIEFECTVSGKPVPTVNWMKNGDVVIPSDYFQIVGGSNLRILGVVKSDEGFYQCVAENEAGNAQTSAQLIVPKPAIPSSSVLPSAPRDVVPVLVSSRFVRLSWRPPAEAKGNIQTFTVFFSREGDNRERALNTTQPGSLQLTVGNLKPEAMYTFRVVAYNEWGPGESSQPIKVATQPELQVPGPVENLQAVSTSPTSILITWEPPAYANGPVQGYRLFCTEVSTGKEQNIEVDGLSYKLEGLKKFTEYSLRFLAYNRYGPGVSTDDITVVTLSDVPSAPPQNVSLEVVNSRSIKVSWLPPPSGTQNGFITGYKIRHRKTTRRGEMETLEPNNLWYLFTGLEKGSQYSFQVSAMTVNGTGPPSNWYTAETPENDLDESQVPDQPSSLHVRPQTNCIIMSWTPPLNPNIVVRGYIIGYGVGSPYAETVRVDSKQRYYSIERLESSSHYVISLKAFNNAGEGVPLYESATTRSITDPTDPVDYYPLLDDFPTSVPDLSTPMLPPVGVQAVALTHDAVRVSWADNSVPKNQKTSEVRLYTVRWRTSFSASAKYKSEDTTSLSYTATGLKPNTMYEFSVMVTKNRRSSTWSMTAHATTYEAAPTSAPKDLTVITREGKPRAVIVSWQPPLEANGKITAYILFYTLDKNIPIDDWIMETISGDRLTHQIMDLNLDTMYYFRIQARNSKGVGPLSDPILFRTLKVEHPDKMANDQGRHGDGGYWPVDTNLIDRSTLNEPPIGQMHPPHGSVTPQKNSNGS
T4 sequence (Q6UXZ4 other isoform, or with tags, fused parts or gaps): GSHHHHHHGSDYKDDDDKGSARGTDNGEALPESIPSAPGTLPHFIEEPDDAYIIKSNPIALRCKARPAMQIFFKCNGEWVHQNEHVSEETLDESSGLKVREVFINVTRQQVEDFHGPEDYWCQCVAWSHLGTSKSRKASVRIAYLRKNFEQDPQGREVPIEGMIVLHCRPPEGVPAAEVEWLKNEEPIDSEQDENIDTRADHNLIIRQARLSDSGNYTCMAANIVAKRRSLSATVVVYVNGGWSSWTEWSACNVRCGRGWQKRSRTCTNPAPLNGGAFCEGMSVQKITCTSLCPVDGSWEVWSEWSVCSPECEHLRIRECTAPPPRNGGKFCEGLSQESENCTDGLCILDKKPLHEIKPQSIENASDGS
T1 sequence (Q6ZN44 other isoform, or with tags, fused parts or gaps): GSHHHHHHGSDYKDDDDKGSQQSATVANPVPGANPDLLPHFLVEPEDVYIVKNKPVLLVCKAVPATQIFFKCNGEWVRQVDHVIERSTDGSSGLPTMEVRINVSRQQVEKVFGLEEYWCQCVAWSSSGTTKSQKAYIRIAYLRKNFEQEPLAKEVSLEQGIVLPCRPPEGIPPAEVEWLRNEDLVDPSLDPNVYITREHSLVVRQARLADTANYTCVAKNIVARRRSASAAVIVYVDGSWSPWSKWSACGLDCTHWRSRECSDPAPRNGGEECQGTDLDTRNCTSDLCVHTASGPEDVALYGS
T6 sequence (O08747 41-931 limits assumed): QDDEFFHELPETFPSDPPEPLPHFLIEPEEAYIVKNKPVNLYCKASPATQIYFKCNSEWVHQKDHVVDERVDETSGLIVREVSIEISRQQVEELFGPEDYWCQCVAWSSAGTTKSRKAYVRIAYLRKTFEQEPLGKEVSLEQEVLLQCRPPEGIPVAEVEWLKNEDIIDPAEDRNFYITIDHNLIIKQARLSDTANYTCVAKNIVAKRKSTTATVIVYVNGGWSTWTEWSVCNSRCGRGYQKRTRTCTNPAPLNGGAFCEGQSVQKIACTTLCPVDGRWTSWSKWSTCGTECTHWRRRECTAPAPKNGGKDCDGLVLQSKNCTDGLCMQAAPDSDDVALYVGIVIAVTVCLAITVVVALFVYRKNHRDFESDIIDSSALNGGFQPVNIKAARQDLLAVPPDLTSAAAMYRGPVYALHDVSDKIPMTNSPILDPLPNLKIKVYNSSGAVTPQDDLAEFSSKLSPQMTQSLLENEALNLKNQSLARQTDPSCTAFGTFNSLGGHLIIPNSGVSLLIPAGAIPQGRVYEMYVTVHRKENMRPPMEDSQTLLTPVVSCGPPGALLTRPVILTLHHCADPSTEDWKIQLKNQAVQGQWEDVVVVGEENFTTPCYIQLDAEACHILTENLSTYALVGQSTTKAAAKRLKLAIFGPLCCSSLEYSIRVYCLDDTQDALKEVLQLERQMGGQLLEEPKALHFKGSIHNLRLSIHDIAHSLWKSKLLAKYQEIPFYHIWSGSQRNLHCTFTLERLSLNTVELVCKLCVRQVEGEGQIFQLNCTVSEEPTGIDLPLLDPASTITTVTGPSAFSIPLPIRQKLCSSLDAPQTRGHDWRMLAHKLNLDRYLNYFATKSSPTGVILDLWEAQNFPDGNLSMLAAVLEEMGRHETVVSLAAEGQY

B1: ATL_0005262 (antibody, human IgG1, V domains shown)
VH: QVQLQESGPGLVKPSETLSLTCTVSGGSISSYFWTWIRQPPGKRLEWIGYIHNSGTTNQNPSLKSRVTISIDTSKNHFSLKLSSVTAADTAVYYCARGRGMATLPFDYWGQGTLVTVSS
VL: not shown
notes: also called ATL_5262; ATL5262
Turning to B1, the binding result is given as “no binding (tested: up to 100 nM)” in [1]; “no binding (tested: up to 100 nM)” in experiment [2]; “no binding (tested: up to 100 nM)” in experiment [3]; “no binding (tested: up to 100 nM)” in [4]; “no binding (tested: up to 100 nM)” in experiment [5]; “binds” in [6]. Besides, the binding result in experiment [7] and in [8] was “binds” throughout.

B2: ATL_0006191 (antibody, IgG1, V domains shown)
VH: QVQLQESGPGLVKPSETLSLTCTVSGGSIGSYFWSWIRQTPGKGLEWIGYIHYSGSSNYNPSLKSRVTISVDTFKNQFSLKLTSVTAADTAVYYCARGRGMATLPFDYWGQGTLVTVSS
VL: not shown
notes: ATL_5262 homologue VH paired with the VL of ATL_5262; also called ATL_6191; ATL6191
On to B2, for which the binding result in [7] and in [8] was “binds” throughout.

B3: ATL_0006039 (antibody, IgG1, V domains shown)
VH: B1 VH with T73K
VL: not shown
notes: also called ATL_6039
For B3, the binding result in experiment [8] was “binds”.

B4: ATL_0006001 (antibody, IgG1, V domains shown)
VH: B1 VH
VL: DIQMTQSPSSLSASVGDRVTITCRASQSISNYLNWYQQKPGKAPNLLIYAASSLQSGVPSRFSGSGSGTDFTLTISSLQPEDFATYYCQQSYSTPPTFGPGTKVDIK
notes: VL pairing variant of ATL_5262; also called ATL_6001
For the molecule B4, the “signal over lysozyme control (fold)” value in experiment [9] is not below 3 fold. Moreover, in experiment [7], the binding result is “binds”.

B5: ATL_0005338 (antibody, V domains shown)
VH: EVKLDETGGGLVQPGRPMKLSCVASGFTFSDYWMNWVRQSPEKGLEWVAQIRNKPYNYETYYSDSVKGRFTISRDDSKSSVYLQMNNLRVEDMGIYYCTGSYYGMDYWGQGTSVTVSS
VL: DVVMTQTPLSLPVSLGDQASISCRSSQSLVNSNGNTYLRWYLQKPGQSPKVLIYKVSNRVSGVPDRFSGSGSGTDFTLKISRVEAEDLGVYFCSQSTHVPWTFGGGTKLEIK
notes: also called ATL_5338
B5: the binding result in experiment [10] and in experiment [8] was “no binding (tested: <1 µM)” throughout.

B6: ATL_0006534 (antibody, V domains shown)
VH: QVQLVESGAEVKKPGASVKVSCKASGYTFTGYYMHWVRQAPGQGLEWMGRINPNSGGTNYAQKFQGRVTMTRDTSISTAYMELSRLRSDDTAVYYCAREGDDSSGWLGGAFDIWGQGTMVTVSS
VL: NFMLTQPHSVLESPGKTVTIPCTRSSGSIASNYVQWYQQRPGSAPTAVIFEDNVRPSGVPDRFSGSVDSSSNSASLTISGLKTEDEGDFYCQSYDSSGHVVFGGGTKVTVL
notes: also called ATL_6534; Y_0001393-001
B6: the 50% effective concentration (EC50) in [11] is 0.01 nM.
